Data on four molecules can be found in PMC11476048 (Nature, 2024).

A word on the stoichiometry N: it is a count of units in the complex or per binding partner.

Substitutions are numbered along the chain they refer to. Names and notes keep the numbering of the source.

The target in data set [1] is T1, E. aridi E1^BilD (1-507, C417A) (Ensifer aridi TW10, C417A).
T1 chain: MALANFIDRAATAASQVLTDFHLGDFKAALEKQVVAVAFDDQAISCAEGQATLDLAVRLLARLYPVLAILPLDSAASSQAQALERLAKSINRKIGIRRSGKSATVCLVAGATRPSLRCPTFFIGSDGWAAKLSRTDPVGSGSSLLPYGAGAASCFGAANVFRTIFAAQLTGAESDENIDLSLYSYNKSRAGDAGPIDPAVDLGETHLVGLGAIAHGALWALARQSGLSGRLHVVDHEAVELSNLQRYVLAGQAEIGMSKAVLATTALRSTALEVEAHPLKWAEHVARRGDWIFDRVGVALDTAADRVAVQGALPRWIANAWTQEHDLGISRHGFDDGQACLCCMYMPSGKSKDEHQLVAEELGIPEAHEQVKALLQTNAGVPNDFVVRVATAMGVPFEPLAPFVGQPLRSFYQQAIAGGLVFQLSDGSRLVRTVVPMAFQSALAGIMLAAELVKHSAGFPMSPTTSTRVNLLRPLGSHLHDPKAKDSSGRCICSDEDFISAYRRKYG
In words: SEC-MALS. A general note: SEC sorts molecules by how far they enter the pores of the column.

The data set “SEC-MALS” deals with the molecule itself. Description: SEC-MALS.

B1: E. aridi E2^BilB (1-181, wild type) (enzyme, Ensifer aridi TW10)
chain: MPELQTVDPEVSRAKFDREISRFRPYADAYRMQGCFLIEESFPSAFFIFASPKVKPRVIGAAIEIDFTNYDLRPPSVVFVDPFTRQPIARKDLPLNMLRRPQLPGTPPEMISNLIQQNAVSLTDFIQANSLQDSPFLCMAGVREYHDNPAHSGDPWLLHRGSGEGCLAFILDKIIKYGTGP
As for B1, in data set [1], the binding result is “binds”. Besides, the “stoichiometry N” value in “SEC-MALS” turned out to be 2.

B2: E. aridi E2^BilB (1-181) Mutant 1 (F36R/I48A/I59K/F83E) (enzyme, Ensifer aridi TW10)
chain: B1 chain with F36R, I48A, I59K, F83E
For the molecule B2, in data set [1], the binding result was “binds”.

B3: E. aridi E2^BilB (1-181) Mutant 2 (F36R/I38A/F46K/I48A/I59K/F83E) (enzyme, Ensifer aridi TW10)
chain: B1 chain with F36R, I38A, F46K, I48A, I59K, F83E
With B3, the binding result in data set [1] is “binds”.

B4: E. aridi Ubl^BilA (17-97) (domain or fragment, Ensifer aridi TW10)
chain: KIEIIVVVNGQPTQVEANPNQPLHVVRTKALENTQNVAQPPDNWEFKDEAGNLLDVDKKIGDFGFANTVTLFLSLKAGVAG
With B4, the binding result in data set [1] is “binds”.
